Reference: patent US20170306005A1 (NASCIENT, published 2017)
Where a chain is given by its changes, count along the chain named. Numbers in names are those of the source.

B1: 165_13_B1 human IgG4 (antibody, V domains shown)
VH: QVQLVESGGGLVQPGRSLRLSCAASGFTFDDYAMHWVRQAPGKGLEWVSGISGSGGSTYYADSVKGRFTISRDNAKNSLYLQMNSLRAEDTALYYCAKVMSSMEDAFDIWGQGTMVTVSS
VL: DIQMTQSPASLPTPVGDRVTITCRASQYIQGFLNWYQQKPGKAPKLLIYDASNLETGVPSRFSGSGSGTDFTLTISSLQPEDFATYYCQQSYSTPQTFGQGTKVDIKR
notes: human IgG4 with hinge S241P
B2: 160_01_A4 human IgG4 (antibody, V domains shown)
VH: EVRLVQSGAEVKKPGASVKVSCKVSGYTLTELSMHWVRQAPGKGLEWMGGFDPEDGETIYAQKFQGRVTMTEDTSTDTAYMELSSLRSEDTAVYYCATAQKETLGNAIWGQGTLVTVSS
VL: B1 VL with P14S, K45R, D50A, N53T, E55Q, T56D, S67Y, Q96W, D105E
notes: human IgG4 with hinge S241P; also called Antibody 160 01 A4 (derived from 2A5)
B3: 165_13_D1 human IgG4 (antibody, V domains shown)
VH: B1 VH with V99G, M100T, S101R, S102G, M103E, E104G, A106T
VL: B1 VL
notes: human IgG4 with hinge S241P
B4: 161_01_F6 human IgG4 (antibody, V domains shown)
VH: B2 VH with T103N, L104I, G105A, A107R, I108H
VL: B1 VL with P14S, K45R, D50A, N53T, E55Q, T56D, S67Y, Q96W, D105E
notes: human IgG4 with hinge S241P; also called 160_01_F6; Antibody 161 01 F6, also known as 160 01 F6 (derived from 2A5)
B5: 160_01_G2 human IgG4 (antibody, V domains shown)
VH: B2 VH with A99Y, Q100T, K101L, E102D, T103N, L104M, G105A, N106L, A107T, I108Y
VL: B1 VL with P14S, K45R, D50A, N53T, E55Q, T56D, S67Y, Q96W, D105E
notes: human IgG4 with hinge S241P; also called Antibody 160 01 G2 (derived from 2A5)
B6: 162_02_C3 human IgG4 (antibody, V domains shown)
VH: B2 VH with L104Y, G105A, N106L, A107T, I108Y
VL: DIQMTQSPASLPTSVGDRVTITCRASQYIQGFLNWYQQKPGKAPRLLIYAASTLQDGVPSRFSGSGYGTDFTLTISSLQPEDFATYYCMQHYDGPWTFGQGTKVEIKR
notes: human IgG4 with hinge S241P; also called Antibody 162 02 C3 (derived from 2A5)
B7: 161_01_C09 human IgG4 (antibody, V domains shown)
VH: B2 VH with K101L, E102P, T103Y, G105A, N106Q, A107T, I108Y
VL: B6 VL with M89Q, H91S, D93S, G94T
notes: human IgG4 with hinge S241P; also called Antibody 161 01 C09 (derived from 2A5)

Molecular target: T1, dog tenascin-C rCD4-His-FBG (rat; dog, UniProt P05540 207-392, limits assumed)
T1 construct: domain: domains 3 and 4; C-terminal FBG fusion; also called Dog TNC; not shown: 6His tag
T1 sequence (chain (part 1 of 2)): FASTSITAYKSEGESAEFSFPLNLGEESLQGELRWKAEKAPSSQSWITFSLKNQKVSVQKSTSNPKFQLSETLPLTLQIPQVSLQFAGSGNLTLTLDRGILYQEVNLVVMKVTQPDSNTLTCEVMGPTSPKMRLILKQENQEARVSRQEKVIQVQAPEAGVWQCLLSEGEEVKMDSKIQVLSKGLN
T1 sequence (chain (part 2 of 2)): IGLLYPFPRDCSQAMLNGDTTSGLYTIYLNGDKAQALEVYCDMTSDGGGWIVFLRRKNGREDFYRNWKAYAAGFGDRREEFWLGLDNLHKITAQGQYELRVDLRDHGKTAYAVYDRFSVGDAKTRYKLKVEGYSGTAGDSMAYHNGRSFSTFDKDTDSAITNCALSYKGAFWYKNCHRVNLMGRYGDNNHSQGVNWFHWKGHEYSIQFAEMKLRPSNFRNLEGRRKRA
Experiment: SPR, captured purified IgG4, 37 C
Method: (§1) Detailed kinetic parameters were evaluated for the 9 prioritised IgG4 antibodies. Binding characteristics were determined for interaction with human, rat and dog TNC rCD4-His-FBG, and human TNR rCD4-His-FBG. Kinetic assays followed essentially the same protocols as for the off-rate determinations described above, with some modifications as follows. […] Purified anti-FBG IgG4 was diluted to a concentration of 3.5 nM in PBS, pH 7.4, 0.05% Tween-20 and injected into FC2 at a flow rate of 10 μl/min, 60 s contact time. […] Antigens were prepared by doubling dilution in PBS, pH 7.4, 0.05% Tween-20 (highest concentration 100 nM except mouse rCD4-His-FBG which was 7 nM). Assays were performed at 37° C. (30 μl/min, 120 s contact time; mouse rCD4-His-FBGFBG 10 μl/min, 60 s contact time), with both the flow cell and injection chamber equilibrated to this temperature. As before, kinetic parameters were determined by reference cell subtraction and fitting the sensogram experimental data assuming a 1:1 interaction using BIAevaluation software (GE, BR-1005-97).

Binder | Kd | koff | kon
B1 | 2.85 nM | 0.0187 s⁻¹ | 6.55e+06 M⁻¹ s⁻¹
B2 | 0.094 nM | 0.00018 s⁻¹ | 1.9e+06 M⁻¹ s⁻¹

Molecular target: T2, human tenascin-R rCd4-His-FBG (rat; human, UniProt P05540 207-392, limits assumed)
T2 construct: domain: domains 3 and 4; C-terminal FBG fusion; also called Hu TNR; human TNR rCd4-His-FBG; not shown: 6His tag
T2 sequence (chain (part 1 of 2)): T1 sequence (chain (part 1 of 2))
T2 sequence (chain (part 2 of 2)): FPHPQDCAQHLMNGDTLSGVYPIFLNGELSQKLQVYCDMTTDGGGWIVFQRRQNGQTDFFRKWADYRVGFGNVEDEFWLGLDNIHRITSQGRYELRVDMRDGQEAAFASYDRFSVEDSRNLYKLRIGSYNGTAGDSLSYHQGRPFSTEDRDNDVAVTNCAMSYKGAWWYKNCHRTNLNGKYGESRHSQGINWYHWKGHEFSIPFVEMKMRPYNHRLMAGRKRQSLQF
Experiment: SPR, captured purified IgG4, 37 C
Method: as §1

Binder | Kd | fold lower affinity than for human TNC FBG | koff | kon
B2 | 15.2 nM | > 70 fold | 0.00399 s⁻¹ | 260000 M⁻¹ s⁻¹

Molecular target: T3, human tenascin-C rCd4-His-FBG (rat; human, UniProt P05540 207-392, limits assumed)
T3 construct: domain: domains 3 and 4; C-terminal FBG fusion; biotinylated in the ELISA and HTRF screens; also called Hu TNC; human TNC rCd4-His-FBG; not shown: 6His tag
T3 sequence (chain (part 1 of 2)): T1 sequence (chain (part 1 of 2))
T3 sequence (chain (part 2 of 2)): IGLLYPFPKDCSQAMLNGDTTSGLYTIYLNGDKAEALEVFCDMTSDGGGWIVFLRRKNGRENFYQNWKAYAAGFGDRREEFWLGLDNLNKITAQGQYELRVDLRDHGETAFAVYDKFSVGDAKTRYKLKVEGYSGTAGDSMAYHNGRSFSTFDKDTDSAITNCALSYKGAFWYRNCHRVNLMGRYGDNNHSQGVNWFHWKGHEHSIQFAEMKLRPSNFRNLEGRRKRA
Experiment: SPR, captured purified IgG4, 37 C
Method: as §1

Binder | Kd | koff | kon
B1 | 0.26 nM | 0.00188 s⁻¹ | 7.27e+06 M⁻¹ s⁻¹
B2 | 0.21 nM | 0.0005 s⁻¹ | 2.35e+06 M⁻¹ s⁻¹

Molecular target: T4, mouse tenascin-C rCd4-His-FBG (rat; mouse, UniProt P05540 207-392, limits assumed)
T4 construct: domain: domains 3 and 4; C-terminal FBG fusion; biotinylated in the ELISA screen; also called Mu TNC; mouse TNC rCd4-His-FBG; not shown: 6His tag
T4 sequence (chain (part 1 of 2)): T1 sequence (chain (part 1 of 2))
T4 sequence (chain (part 2 of 2)): T1 sequence (chain (part 2 of 2)) with L29I, A34T, H89S, R104Q, K108E, T109S, T124S, A142N, F152Y
Experiment: SPR, captured purified IgG4, 37 C
Method: as §1

Binder | Kd | koff | kon
B1 | 0.96 nM | 0.000706 s⁻¹ | 733000 M⁻¹ s⁻¹
B2 | 1.23 nM | 0.000146 s⁻¹ | 118000 M⁻¹ s⁻¹

Molecular target: T5, rat tenascin-C rCd4-His-FBG (rat, UniProt P05540 207-392, limits assumed)
T5 construct: domain: domains 3 and 4; C-terminal FBG fusion; also called Rat TNC; rat TNC rCD4-His-FBG; not shown: 6His tag
T5 sequence (chain (part 1 of 2)): T1 sequence (chain (part 1 of 2))
T5 sequence (chain (part 2 of 2)): T1 sequence (chain (part 2 of 2)) with L29I, A34T, A72T, H89S, R104Q, K108E, T109S, T124S, A142N, F152Y
Experiment: SPR, captured purified IgG4, 37 C
Method: as §1

Binder | Kd | koff | kon
B1 | 2.2 nM | 0.00684 s⁻¹ | 3.11e+06 M⁻¹ s⁻¹
B2 | 1.49 nM | 0.00189 s⁻¹ | 1.27e+06 M⁻¹ s⁻¹

Molecular target: T2, human tenascin-R rCd4-His-FBG
Experiment: SPR off-rate screen, captured IgG4 supernatant, 25 C
Method: (§2) The 31 scFv of interest were sub-cloned into a human IgG4 expression vector for generation of antibodies as human IgG4 with a hinge-stabilising mutation (S241P; Angal et al, 1993). […] Briefly, surface plasmon resonance (SPR) experiments were performed using a BIAcore T100 instrument and followed the protocol according to the Human antibody capture kit protocol (GE, BR-1008-39). For off-rate screening, 10,000 response units (RU) of anti-human Fc IgG (GE, BR-1008-39) was immobilised on flow-cells (FC1 and FC2) of a Series 5 CM5 dextran sensor chip (BR-1005-30) using EDC/NHS cross-linking chemistry according to the amine coupling kit protocol (GE, BR-1000-50). Culture supernatants containing expressed IgG4 were diluted 1:2 with 2×PBS-T and injected into FC2 (flowrate 5 μl/min, 60 s contact time) to enable antibody capture at 25° C. […] A fixed concentration of antigen (15 nM of human and mouse TNC rCd4-His-FBG and 100 nM of human TNR rCd4-His-FBG) was injected with a flow-path via FC 1 (reference flow cell) and FC 2 (antibody capture flow cell), with a flow rate of 30 μl/min, and the association and dissociation phases measured over 1 and 5 min time periods, respectively. Regeneration of the binding surface employed 3M MgCl₂ with 30 s contact time. Off rates were determined by reference cell subtraction and fitting the sensogram experimental data assuming a 1:1 interaction using BIAevaluation software (GE, BR-1005-97).

Binder | koff
B3 | 0.0043 s⁻¹
B4 | 0.0025 s⁻¹
B5 | 0.001 s⁻¹
B6 | 0.635 s⁻¹
B7 | 0.00029 s⁻¹
B2 | 0.011 s⁻¹

Molecular target: T3, human tenascin-C rCd4-His-FBG
Experiment: as above
Method: as §2

Binder | koff
B1 | 1.5e-06 s⁻¹
B3 | 1.4e-07 s⁻¹
B4 | 2.8e-06 s⁻¹
B5 | 1.25e-05 s⁻¹
B6 | 1.49e-06 s⁻¹
B7 | 1.17e-07 s⁻¹
B2 | 6.7e-06 s⁻¹

Molecular target: T4, mouse tenascin-C rCd4-His-FBG
Experiment: as above
Method: as §2

Binder | koff
B1 | 1.7e-06 s⁻¹
B3 | 3.9e-06 s⁻¹
B4 | 0.00171 s⁻¹
B5 | 1.39e-05 s⁻¹
B6 | 0.002 s⁻¹
B7 | 2.3e-07 s⁻¹
B2 | 5.9e-06 s⁻¹
